Measured values as given in patent publication US20240173407A1.

Target: Bicistronic receptor WU76UB CD3E_CD3E_2B4_CD3Z_CD3G_CD3G_OX40
Experiment: cell-based or functional assay

Sequence of Bicistronic receptor WU76UB CD3E_CD3E_2B4_CD3Z_CD3G_CD3G_OX40 (chain, as listed by the source limits assumed, form in doubt): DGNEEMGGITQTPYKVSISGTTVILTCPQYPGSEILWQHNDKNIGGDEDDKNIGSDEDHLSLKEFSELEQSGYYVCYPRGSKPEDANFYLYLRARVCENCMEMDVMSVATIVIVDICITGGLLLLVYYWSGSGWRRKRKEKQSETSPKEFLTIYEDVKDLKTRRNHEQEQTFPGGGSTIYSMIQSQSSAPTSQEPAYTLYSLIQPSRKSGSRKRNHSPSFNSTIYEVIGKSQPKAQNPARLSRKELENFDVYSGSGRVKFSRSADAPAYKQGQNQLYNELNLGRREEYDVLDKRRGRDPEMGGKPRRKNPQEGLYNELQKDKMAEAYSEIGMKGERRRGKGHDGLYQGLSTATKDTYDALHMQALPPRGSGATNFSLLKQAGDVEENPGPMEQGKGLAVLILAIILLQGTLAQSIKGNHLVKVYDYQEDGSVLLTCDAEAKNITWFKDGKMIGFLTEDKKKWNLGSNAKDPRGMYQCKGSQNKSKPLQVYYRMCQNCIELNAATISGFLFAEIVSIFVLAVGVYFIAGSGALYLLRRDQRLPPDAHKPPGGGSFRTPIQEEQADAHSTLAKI

fold change in p-S6 levels: 3 fold
Substance: Blinatumomab (bispecific antibody)
